Measured values from publication PMC3679926.

Assays:
[1] = molecular target: T1, p53 (rp53) (UniProt P04637 1-393); assay: EMSA
[2] = molecular target: T1, p53 (rp53); assay: competition

T1 sequence (P04637 whole entry): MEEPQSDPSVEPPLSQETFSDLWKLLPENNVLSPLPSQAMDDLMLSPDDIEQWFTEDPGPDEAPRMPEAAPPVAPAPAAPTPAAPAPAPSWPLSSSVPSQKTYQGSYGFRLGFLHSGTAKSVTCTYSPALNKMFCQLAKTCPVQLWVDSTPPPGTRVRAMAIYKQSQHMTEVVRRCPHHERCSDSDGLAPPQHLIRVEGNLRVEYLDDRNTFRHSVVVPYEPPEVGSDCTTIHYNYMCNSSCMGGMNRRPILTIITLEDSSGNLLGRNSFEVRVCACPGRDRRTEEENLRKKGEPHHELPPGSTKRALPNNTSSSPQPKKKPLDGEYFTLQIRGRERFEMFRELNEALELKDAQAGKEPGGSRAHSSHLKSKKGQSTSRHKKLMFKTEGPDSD

B1: p53RE wt (miR-205 upstream p53BS) (dsDNA)
DNA 1: ACTGAGCCATGGGCATGTCTGAACACAACA
DNA 2: TGTTGTGTTCAGACATGCCCATGGCTCAGT
Question: Does B1 bind [1]?
Answer: binds

B2: p53RE MUT (dsDNA)
DNA 1: ACTGAGCCATCCCGGCCGGCGAACACAACA
DNA 2: TGTTGTGTTCGCCGGCCGGGATGGCTCAGT
Question: Does B2 bind [1]?
Answer: no binding

B3: p53RE wt, unlabeled competitor (dsDNA)
DNA 1: ACTGAGCCATGGGCATGTCTGAACACAACA
DNA 2: TGTTGTGTTCAGACATGCCCATGGCTCAGT
Question: Does B3 bind [2]?
Answer: binds
